The results in this text go back to article PMC3680380, “Functional Characterization of the Cardiac Ryanodine Receptor Pore-Forming Region” (PLoS ONE, 2013).

The data set deals with the molecule itself. Description: SEC; analytical gel filtration, HiLoad 16/60 Superdex 200, 50 mM Tris, 150 mM KCl, pH 8.0, 0.1% LDAO; calibrated with soluble protein standards (B-amylase, carbonic anhydrase, cytochrome c); elution at 72 ml against 71 ml expected for a tetramer.

B1: human cardiac ryanodine receptor (RyR2) pore-forming region (domain or fragment, UniProt Q92736 4758-4967, looked up)
chain: SSVTHNGKQLVLTVGLLAVVVYLYTVVAFNFFRKFYNKSEDGDTPDMKCDDMLTCYMFHMYVGVRAGGGIGDEIEDPAGDEYEIYRIIFDITFFFFVIVILLAIIQGLIIDAFGELRDQQEQVKEDMETKCFICGIGNDYFDTVPHGFETHTLQEHNLANYLFFLMYLINKDETEHTGQESYVWKMYQERCWEFFPAGDCFRKQYEDQLN
notes: Cardiac ryanodine receptor RyR2, human, pore-forming region, residues 4758-4967 (printed as 209 residues), up to the natural C-terminus; 27.3 kDa with the tag; also called hRyR2-PFR; RyR2-PFR; source: E. coli Rosetta (DE3) pLysS, pET19b; membranes solubilised in 1% LDAO, purified (Ni-NTA, Superdex 200 gel filtration in 0.1% LDAO); not shown: deca-His, N-terminal, kept
In the case of B1, the “stoichiometry N” value is 4.
